In patent US20140056902A1 (Kyowa Kirin, published 2014):

T1: N-terminal His-tagged BMP10 expressed by the pLN1V5_human BMP10 vector (human, UniProt O95393 22-424)
T1 sequence: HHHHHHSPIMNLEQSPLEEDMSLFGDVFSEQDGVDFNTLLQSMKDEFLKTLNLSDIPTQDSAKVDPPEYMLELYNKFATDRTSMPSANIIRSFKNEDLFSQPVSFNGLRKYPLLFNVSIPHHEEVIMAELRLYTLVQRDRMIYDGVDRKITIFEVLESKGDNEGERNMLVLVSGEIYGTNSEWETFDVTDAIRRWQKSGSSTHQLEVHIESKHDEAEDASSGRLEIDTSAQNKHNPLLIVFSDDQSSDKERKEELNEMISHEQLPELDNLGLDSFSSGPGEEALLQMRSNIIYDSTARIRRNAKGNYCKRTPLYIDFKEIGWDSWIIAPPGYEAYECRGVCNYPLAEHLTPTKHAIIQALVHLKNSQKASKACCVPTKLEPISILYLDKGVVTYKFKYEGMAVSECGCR

T2: chimeric protein 5 of human BMP9/10 region C (human, UniProt Q9UK05 320-429; Q9UK05 23-319)
T2 construct: Made in the pLN1V5_human BMP9 vector (His-tagged complex); also called Chimera 5; human BMP9/BMP10 chimeric protein 5; not shown: N-terminal His tag
T2 chain 1: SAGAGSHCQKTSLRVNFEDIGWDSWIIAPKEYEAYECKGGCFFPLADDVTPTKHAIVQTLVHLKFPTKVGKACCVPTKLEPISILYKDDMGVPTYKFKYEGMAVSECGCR
T2 chain 2: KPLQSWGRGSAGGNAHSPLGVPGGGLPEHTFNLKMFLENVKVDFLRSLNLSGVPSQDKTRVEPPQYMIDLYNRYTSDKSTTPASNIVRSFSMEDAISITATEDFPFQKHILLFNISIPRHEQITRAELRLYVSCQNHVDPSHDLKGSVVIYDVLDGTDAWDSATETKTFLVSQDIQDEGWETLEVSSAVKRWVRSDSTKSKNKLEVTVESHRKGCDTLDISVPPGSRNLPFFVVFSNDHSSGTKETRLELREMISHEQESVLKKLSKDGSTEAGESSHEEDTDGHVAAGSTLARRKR

T3: human BMP9 recombinant protein prepared according to Example 12 of WO 2010/126169 (N-terminal His-tagged … (human, UniProt Q9UK05 320-429; Q9UK05 23-319)
T3 construct: not shown: N-terminal His tag
T3 sequence 1: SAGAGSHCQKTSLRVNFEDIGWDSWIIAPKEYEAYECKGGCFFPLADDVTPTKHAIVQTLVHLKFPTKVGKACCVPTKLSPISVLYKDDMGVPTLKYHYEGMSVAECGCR
T3 sequence 2: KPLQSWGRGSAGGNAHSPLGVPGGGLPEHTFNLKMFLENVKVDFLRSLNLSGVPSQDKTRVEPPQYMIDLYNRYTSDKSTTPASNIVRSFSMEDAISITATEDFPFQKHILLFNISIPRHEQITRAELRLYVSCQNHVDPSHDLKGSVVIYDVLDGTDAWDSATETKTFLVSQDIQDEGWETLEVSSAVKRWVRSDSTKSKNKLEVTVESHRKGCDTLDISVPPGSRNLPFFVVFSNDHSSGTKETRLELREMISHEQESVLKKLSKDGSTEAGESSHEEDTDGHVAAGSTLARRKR

T4: human mature dimer BMP10 recombinant protein (manufactured by R&D systems, Cat#2926-BP) (human, UniProt O95393 317-424)
T4 construct: Bought protein; also called human BMP10
T4 sequence: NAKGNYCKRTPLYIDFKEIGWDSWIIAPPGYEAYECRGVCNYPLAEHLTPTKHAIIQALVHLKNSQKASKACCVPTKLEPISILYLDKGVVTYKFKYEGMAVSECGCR

T5: human mature dimer BMP9 recombinant protein (manufactured by R&D systems, Cat#3209-BP) (human, UniProt Q9UK05 320-429)
T5 construct: Bought protein; also called human BMP9; human BMP9 recombinant protein (manufactured by R&D systems)
T5 sequence: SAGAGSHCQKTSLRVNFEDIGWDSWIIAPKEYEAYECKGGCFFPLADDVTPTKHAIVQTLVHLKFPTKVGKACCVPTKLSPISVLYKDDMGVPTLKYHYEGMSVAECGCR


Key:
[1] = target: T1, N-terminal His-tagged BMP10 expressed …; assay: antigen-immobilized ELISA, antigen coated at 3 ug/mL
Experimental: (§1) Antigen immobilized ELISA of the obtained antibodies was performed using the chimeric protein. 3 μg/mL of the recombinant human BMP9, BMP10, and BMP9/10 chimeric proteins of Example 20-2 in 50 mmol/L NaHCO₃ buffer were added to a 96-well plate for ELISA (F96 MAXISORP NUNC-IMMUNO PLATE, manufactured by Thermo Fisher Scientific, Cat#442404) at an amount of 50 μL/well, and left at 4° C. overnight for adsorption.
(§2) After removal of the reagent for immobilization, 200 μL/well of 1% BSA-PBS was added, and left at room temperature for 1 hour for blocking, and washing was carried out using PBST five times. […]
(§3) The plate was washed with PBST ten times, and 50 μL/well of the TMB chromogen reagent (TMB+Substrate-Chromogen, manufactured by Dako, Cat#S 1599) was added for chromogenic reaction. When the intensity of chromogenic reaction became strong enough, 50 μL/well of a 1 N sulfuric acid solution (manufactured by Wako, Cat#192-04755) was added, and absorbance at 450 nm and 570 nm was determined using a Multiskan Spectrum (manufactured by Thermo Labsystems).

[2] = target: T2, chimeric protein 5 of human BMP9/10 …; assay: antigen-immobilized ELISA, antigen coated at 3 ug/mL, antibody 1000 ng/mL; + = absorbance of 1 or more
Experimental: as §1, §2, §3

[3] = target: T3, human BMP9 recombinant protein prepared …; assay: SPR (BIAcore 2000), antibody captured on anti-mouse IgG, human BMP9 recombinant protein as analyte, single cycle kinetics
From the text: The binding activity (affinity) of the obtained antibodies to human BMP9 recombinant protein was examined using BIAcore 2000 (manufactured by GE Healthcare). After anti-mouse IgG antibody was immobilized onto a CM5 sensor chip using a Mouse Antibody Capture Kit (manufactured by GE Healthcare), anti-human BMP9 antibody was coupled to an RU value of 700-1100.
Thereafter, 0.152 nmol/L, 0.457 nmol/L, 1.37 nmol/L, 4.1 nmol/L, 12.3 nmol/L, 36.89 nmol/L, 110.67 nmol/L, and […] of the human BMP9 recombinant protein prepared in Example 7-1 were prepared by using an HBS-EP solution (manufactured by GE Healthcare) and added as analytes, and binding affinity was measured.
Based on the obtained values, the dissociation constant (Kd value) was calculated by single cycle kinetics (BIAevaluation Software ver. 3, manufactured by GE Healthcare).

[4] = target: T4, human mature dimer BMP10 recombinant …; assay: ELISA, immobilized antigen (100 ng/mL coat), biotin-labeled antibody at 100 ng/mL, absorbance 450-570 nm
Experimental: To examine specificity of the obtained antibodies to human BMP9, their binding ability to human BMP9 and human BMP10 having the highest homology to human BMP9 was tested by comparison. First, 100 ng/mL of human mature dimer BMP9 recombinant protein (manufactured by R&D systems, Cat#3209-BP), or human mature dimer BMP10 recombinant protein (manufactured by R&D systems, Cat#2926-BP) prepared in 50 mmol/L NaHCO₃ buffer (manufactured by Wako, Cat#191-01305) was added to a 96-well plate for ELISA (F96 MAXISORP NUNC-IMMUNO PLATE, manufactured by Thermo Fisher Scientific, Cat#442404) at an amount of 50 μL/well, and left at 4° C. overnight for adsorption.
Subsequently, 6D10-1-1 antibody, 10D5-2-3 antibody, 3B7-3-3 antibody, R&D antibody, or anti-BMP10 antibody (manufactured by R&D, Cat#MAB2926) that was labeled with biotin using a Biotin Labeling Kit-NH2 (manufactured by COSMO BIO, Cat#LK03) was prepared at a concentration of 100 ng/mL using 10% Super Block in TBST which was prepared by mixing SuperBlock and TBST at a ratio of 1:9. 50 μL/well thereof was aliquoted as a primary antibody, and left at room temperature for 1 hour.
(§4) The plate was washed with TBST five times, and 50 μL/well of the TMB substrate reagent (TMB+ Substrate-Chromogen, manufactured by Dako, Cat#S1599) was added for color-development. When proper color was developed, 50 μL/well of the 1 N sulfuric acid solution (manufactured by Wako, Cat#192-04755) was added, and absorbance (450 nm-570 nm) at a sample wavelength of 450 nm and at a reference wavelength of 570 nm was determined using a plate reader (manufactured by Spectra Max, Molecular Devices).

[5] = target: T5, human mature dimer BMP9 recombinant …; assay: ELISA, immobilized human BMP9 (100 ng/mL coat), biotin-labeled antibody titrated, absorbance 450-570 nm; unit ng/mL from the legend
Experimental: First, 100 ng/mL of human mature dimer BMP9 recombinant protein (manufactured by R&D systems, Cat#3209-BP) prepared in 50 mmol/L NaHCO₃ buffer was added to a 96-well plate for ELISA (F96 MAXISORP NUNC-IMMUNO PLATE, manufactured by Thermo Fisher Scientific, Cat#439454) at an amount of 50 μL/well, and left at 4° C. overnight for adsorption.
After removal of the reagent for immobilization, 200 μL/well of SuperBlock (manufactured by Thermo […], Cat#37535) was added, and left at room temperature for 1 hour for blocking, and washing was carried out using TBST three times. Subsequently, the biotin-labeled 6D10-1-1 antibody, 10D5-2-3 antibody, 3B7-3-3 antibody or R&D antibody was prepared at a concentration of 1, 5, 20, 100, or 300 ng/mL using 10% Super Block in TBST. Each 50 μL/well thereof was aliquoted, and left at room temperature for 1 hour.
as §4

binding result [1]	binding result [2]	Kd [3]	Relative binding affinity (to R&D antibody) [3]	binding result [4]	EC50 (read off the curve) [5]	Binder
no binding	binds	0.00969 nM	63.6 fold	no binding (tested: 100 ng/mL)		10D5-2-3 antibody (antibody, mouse IgG1, V domains shown, Mouse monoclonal from a BMP9 KO mouse hybridoma; mouse IgG1 heavy chain, kappa light chain) VH: EVKLEESRGGLVQPGGSMKLSCVASGFTFSNYWMNWVRQSPEKGLEWVAHIRLKSDNYATHYAESVRGRFTISRDDSKSSVFLQMNNLRAEDTGIYYCTGGSNYVFAFWGQGTLVTVSA VL: not shown
no binding		0.0297 nM	20.7 fold	no binding (tested: 100 ng/mL)	~8 ng/mL	6D10-1-1 antibody (antibody, mouse IgG1, V domains shown, Mouse monoclonal from a BMP9 KO mouse hybridoma; also called 610D-1-1 antibody) VH: QVQLQQSGAELVRPGTSVKVSCKASGYAFTNYLMEWIKQRPGQGLEWIGVIHPGIGVTNYNEKFKGKATLTADISSSTAYMQLSSLTSEDSAVYFCARRANWDLYYFDYWGQGTTLTVSS VL: DIQMTQITSSLSASLGDRVTISCSASQDISNYLNWYQQKPDGTVKLLIYYTSSLHSEVPSRFSGSGSGTDYSLTISNLEPEDIATYYCQQYINLPLTFGAGTKLELKR
